Test [1] concerns the target T1, human IGF-IR on cells (human, UniProt P08069 31-1367). As to the kind of experiment: displacement of [125I]-IGF-I from MCF-7 cells. The method, then: (§1) Cells were subsequently lysed and radioactivity was quantitated.
(§2) The human breast adenocarcinoma MCF-7 (ATCC, Manassas, Va.) was plated in 24 well plates at a concentration of 50,000 cells per well in RPMI 1640 (Invitrogen, Carlsbad, Calif.) containing 10% fetal bovine serum (Hyclone, Logan, Utah). The following day, cells were washed in binding buffer consisting of RPMI 1640 containing 0.1% BSA (Sigma, St. Louis, Mo.), and then pre-incubated for 30 minutes on ice in 200 μL binding buffer containing IGF-IR competitor. […] The wells were then washed with ice cold PBS containing 0.1% BSA. Cells were lysed with 500 μL buffer consisting of 0.1% SDS+0.5 N NaOH. Radioactivity of the lysates was measured using a Wallac 1470 Gamma Counter (Perkin Elmer, Wellesley, Mass.), and the data were analyzed using SigmaPlot (Systat Software, Point Richmond, Calif.).
For orientation: In a radioligand displacement assay an active substance lowers the binding of a labelled ligand.

Test [2] concerns the target T1, human IGF-IR on cells. As to the kind of experiment: cell-based or functional assay.
For test [3], the target named is T1, human IGF-IR on cells. Kind of test: displacement of 40 pM [125I]-IGF-I from MCF-7 cells, on ice, cell-bound CPM. The method, then:
as §1, §2

In test [4] the target is T2, IGF-IR-Fc (human, UniProt P08069 31-932).
T2 construct: range 1-932; Made in house by transient transfection, captured on Protein A on CM5 chips for kinetic analysis; also called human IGF-IR-Fc fusion protein; recombinant, immobilized IGF-IR (BIAcore); not shown: hinge and constant regions of human IgG1
Kind of test: SPR (BIAcore); IGF-IR-Fc captured on Protein A, clone in solution. How it is done:
One liter E. coli growths of selected optimized clones were prepared and the proteins were purified. Surface plasmon resonance (BIAcore) analysis was performed using recombinant, immobilized IGF-IR and solution-phase clones in order to determine binding kinetics and binding affinities.
(§3) The binding kinetics of fibronectin-based scaffold proteins binding proteins to the target was measured using BIAcore 2000 or 3000 biosensors (Pharmacia Biosensor). A capture assay was developed utilizing an IGF-IR-Fc fusion. A similar reagent had been described by Forbes et al. (Forbes et al. 2002, European J. Biochemistry, 269, 961-968). The extracellular domain of human IGF-IR (aa 1-932) was cloned into a mammalian expression vector containing the hinge and constant regions of human IgG1. Transient transfection of the plasmid produced a fusion protein, IGF-IR-Fc which was subsequently purified by Protein A chromatography and captured on Protein A immobilized on Biasensor CM5 chips by amine coupling. The kinetic analysis involved the capture of IGF-IR-Fc on Protein A followed by injection of the fibronectin-based scaffold protein in solution and regeneration of the Protein A surface by glycine pH 2.0. Sensorgrams were obtained at each concentration and were evaluated using a program Biaevaluation, BIA Evaluation 2.0 (BIAcore), to determine the rate constants kₐ (kₒₙ) and kd (koff) The dissociation constant, KD was calculated from the ratio of rate constants koff/kₒₙ. Typically, a concentration series (2 uM to 0 uM) of purified fibronectin-based scaffold protein was evaluated for binding to protein A captured human IGF-IR-Fc fusion protein.
In general terms: In SPR one partner is held on a chip, and binding of the other changes the refractive index at the surface.

For test [5], the target named is T3, recombinant human IGF-IR (human, UniProt P08069 31-932).
T3 construct: Bought (R&D Systems); also called insulin-like growth factor-I receptor; IGF-1R
As to the kind of experiment: direct binding ELISA: plate coated with 10 nM IGF-IR, His-tagged clone detected with His-HRP probe, TMB, OD450. How it is done:
MaxiSorp™ plates (Nunc International, Rochester, N.Y.) were coated with 10 nM IGF-IR in PBS at 4° C. overnight followed by blocking in PBS-casein buffer (Pierce) for 3 hours at room temperature. Purified fibronectin-based scaffold proteins in casein buffer were bound to each well for 1 hour at room temperature at a concentration of 5 nM. The plate was washed with PBST and 100 μl of a 1:4000 dilution of His-HRP probe (Pierce) was added to each well with incubation for 15 min at room temperature. The wells were washed 5 times with PBST and the bound HRP was detected with TMB detection reagents (BD biosciences) according to the manufacturer's instructions.
In general terms: ELISA stands for enzyme-linked immunosorbent assay.

Test [6] has as its target T3, recombinant human IGF-IR. Kind of test: competitive ELISA, coated IGF-IR, biotinylated IGF-I as competitor. How it is done: (§4) MaxiSorp™ plates (Nunc International, Rochester, N.Y.) were coated with 30 nM IGF-IR in PBS at 4° C. overnight followed by blocking in OptEIA buffer (BD biosciences, San Diego, Calif.) for 3 hours at room temperature. Purified fibronectin-based scaffold proteins in OptEIA buffer were bound to each well for 1 hour at room temperature at concentrations ranging from 50 pM to 1 μM. […] The excess ligand was removed by washing with PBST and bound ligand was detected with streptavidin-HRP (Pierce, Rockford, Ill.) using TMB detection reagents (BD biosciences) according to the manufacturer's instructions

Test [7] has as its target T4, recombinant human insulin receptor (human, UniProt P06213-2 28-944, limits assumed).
T4 construct: Amine-coupled to a CM5 chip (8300 RU); also called IR
As to the kind of experiment: SPR (BIAcore); IR amine-coupled to chip, clone at 10 µM, signal as % of insulin signal. The method, then: (§5) One liter E. coli growths of selected optimized clones were prepared and the proteins were purified.
(§6) In brief, 60 ug/mL of IR diluted in acetate 4.5 was coupled/immobilized to a level of 8300 RU and 11.9 ug/mL of VEGF-R2-Fc diluted in acetate 5.0 was immobilized to a level of 9700 RU on flow cells 2 and 3. A blank reference surface was prepared on FC 1. […] Fibronectin-based scaffold proteins were diluted to 10 uM in HBS-EP (10 mM Hepes 150 mM NaCl 3 mM EDTA 0.05% Surfactant P20) and injected at 20 uL/min for 3 minutes over the flow cells at 25 C and dissociation was observed over 10 mins.

Test [8] has as its target T4, recombinant human insulin receptor. Kind of test: SPR (BIAcore), IR amine-coupled to chip. The method, then:
as §6

Test [9] has as its target T3, recombinant human IGF-IR. Kind of test: competitive ELISA: plate coated with 30 nM IGF-IR, clone bound first, then 10 nM biotinylated IGF-I as the blocked ligand, streptavidin-HRP/TMB, OD450. The method, then: as §4
In test [10] the target is T2, IGF-IR-Fc. Kind of test: SPR (BIAcore); IGF-IR-Fc captured on Protein A, analyte in solution. How it is done:
as §3

The target of test [11] is T2, IGF-IR-Fc. Kind of test: SPR (BIAcore); IGF-IR-Fc captured on Protein A, clone in solution. The method, then:
BIAcore analysis was performed using recombinant, immobilized IGF-IR and solution-phase clones in order to determine binding kinetics and binding affinities.
as §3
The source holds these as a separate data set.

Test [12] concerns the target T4, recombinant human insulin receptor. As to the kind of experiment: SPR (BIAcore), IR amine-coupled to chip. How it is done:
as §5, §6
The source holds these as a separate data set.

The target in test [13] is T2, IGF-IR-Fc. As to the kind of experiment: SPR (BIAcore); IGF-IR-Fc captured on Protein A, clone in solution. The method, then:
as §3
The source holds these as a separate data set.

The target in test [14] is T2, IGF-IR-Fc. As to the kind of experiment: SPR (BIAcore); immobilized IGF-IR, analyte in solution. How it is done: as §3

Positions count from the first letter of the chain named. Like-named read-outs stand apart in the source and are kept apart here.

In general, IC50 refers to the concentration that inhibits the measured activity by half. anti-IGF-IR monoclonal antibody MAB391 showed an IC50 in [1] of 5000 pM. In test [2], the IC50, serum mediated proliferation of NCI-H929 cells was 100 pM. The molecule further registered an IC50 (read off the curve) in test [3] of 2000 pM.

B1: 338A06 (designed binder)
chain: VSDVPRDLEVVAATPTSLLISWSARLKVARYYRITYGETGGNSPVQEFTVPKNVYTATISGLKPGVDYTITVYAVTKMRDYRPISINYRTHHHHHH
notes: Optimized derivative of 218C04; also called clone 338A06; parent clone 338A06
The term Kd denotes the concentration at which binding is half-saturated. A high value points to lower affinity. A word on the koff: it is the first-order rate constant of dissociation. Low values mean slow dissociation, high ones fast dissociation. In general, kon refers to the second-order rate constant of association. A lower kon goes with slower complex formation. What is called EC50 (read off the curve) is the concentration at which the effect is half-maximal. For B1, the IC50 in test [1] is 1000 to 2000 pM; in test [6] it was at most 1000 pM. Further, the “IC50, IGF-I-dependent proliferation of BxPC-3 cells (3H-thymidine)” value in test [2] lay in the range of 10000 to 20000 pM. Moreover, the “IC50 (read off the curve)” value is about 1000 pM in [3] and about 700 pM in test [9]. In test [4], this molecule had a Kd of 69 pM. Also, in [4], the koff was determined as 0.00043 s⁻¹. The molecule also gave an association rate constant (kon) in test [4] of about 6.2e+06 M⁻¹ s⁻¹. Further, the “EC50 (read off the curve)” value in [5] is about 2000 pM. Besides, in test [7], the “% IR Binding at 10 µM” value is 2%. Besides, the binding result in [8] is on record as “no binding (tested: 10 µM)”.

B2: 385A08 (designed binder)
chain: B1 chain with K77R, M78F, R82Q
notes: FG loop optimized derivative of 338A06; also called clone 385A08; unmodified 385A08
For the molecule B2, the “IC50, serum mediated proliferation of NCI-H929 cells” value (“IC50, serum mediated proliferation” for short) in [2] was about 100 pM. In test [10], this molecule gave a Kd of 23 pM, a koff of 0.00016 s⁻¹ and a kon of 6.9e+06 M⁻¹ s⁻¹. Further, in [11], the Kd was 34 pM, the dissociation rate constant (koff) came out at 0.00019 s⁻¹ and the kon was found to be 5.7e+06 M⁻¹ s⁻¹. Also, the binding result in [8] is “no binding (tested: 10 µM)”.

B3: 353H09 (designed binder)
chain: B1 chain with A24D, R25K, A29Q, N53H, V54D, Y55R
notes: Optimized derivative of 218C04
Regarding B3, in [4], the Kd is 57 pM, the koff was 0.00022 s⁻¹ and the kon stood at 3.8e+06 M⁻¹ s⁻¹. Moreover, in test [12], the binding result was “no binding (tested: 10 µM)”. For the same molecule, the “IC50 (read off the curve)” value in [9] is about 1000 pM.

B4: 218C04 (designed binder)
chain: VSDVPRDLEVVAATPTSLLISWSPYLRVARYYRITYGETGGNSPVQEFTVPSSARTATISGLKPGVDYTITVYAVTPSNIIGRHYGPISINYRTHHHHHH
notes: also called clone 218C04; pre-optimized clone
For B4, the Kd in [13] was 1800 pM.

B5: 385A08-PEG40 (designed binder)
chain: GVSDVPRDLEVVAATPTSLLISWSARLKVARYYRITYGETGGNSPVQEFTVPKNVYTATISGLKPGVDYTITVYAVTRFRDYQPISINYRTEIDKPCQ
modifications: Cys97 coupled by maleimide chemistry to a mono-functional branched 40 kDa PEG
B5: the “IC50, serum mediated proliferation” value in [2] is about 1000 pM. In addition, in test [10], the Kd came out at 355 pM, the koff amounted to 0.00021 s⁻¹ and the kon is 600000 M⁻¹ s⁻¹. Also, the “fold change of on-rate (ka) relative to unmodified 385A08” value in [14] was about 10 fold slower.

B6: 385A08-PEG20-385A08 (designed binder)
chain: B5 chain
modifications: Cys97 coupled by maleimide chemistry to a linear 20 kDa bifunctional PEG that links the two chains
notes: Two copies of 385A08 with the C-terminal Cys extension, joined through PEG; also called PEG20-385A08-PEG20 variant
Regarding B6, the “IC50, serum mediated proliferation” value in [2] is under 0.1 pM. For the same molecule, in [10], the Kd came out at 6 pM, the koff is 9e-05 s⁻¹ and the kon came to 1.5e+07 M⁻¹ s⁻¹. In addition, the “fold change of on-rate (ka) relative to unmodified 385A08” value in test [14] is about 2 fold faster.
